According to patent US20200283475A1:
Values belong to the substance of their own block, whether it stands above or below them.

Experiments:
[1] = target: human polyclonal IgG (Gammanorm) (human); experiment: column breakthrough, agarose beads, ligand 9.7 mg/ml, 6 min residence
[2] = target: human polyclonal IgG (Gammanorm) (human); experiment: column breakthrough, ligand 9.7 mg/ml; after 24 h 1.0 M NaOH
[3] = target: human polyclonal IgG (Gammanorm) (human); experiment: column breakthrough; ratio to reference Zvar4
[4] = target: human polyclonal IgG (Gammanorm) (human); experiment: column breakthrough, 1.0 M NaOH; ratio to reference Zvar4
[5] = target: human polyclonal IgG (Gammanorm) (human); experiment: column breakthrough, agarose beads, ligand 9.7 mg/ml, 6 min residence; remark: listed apart in the source
[6] = target: human polyclonal IgG (Gammanorm) (human); experiment: column breakthrough, ligand 9.7 mg/ml; after 24 h 0.5 M NaOH
[7] = target: human polyclonal IgG (Gammanorm) (human); experiment: SPR, ligand on chip; CIP cycles 0.5 M NaOH
[8] = target: human polyclonal IgG (Gammanorm) (human); experiment: SPR; ratio to reference Zvar4
[9] = target: human polyclonal IgG (Gammanorm) (human); experiment: SPR, 1 M NaOH; ratio to reference Zvar4
[10] = target: human polyclonal IgG (Gammanorm) (human); experiment: SPR, ligand on chip; CIP cycles 1 M NaOH
[11] = target: human polyclonal IgG (Gammanorm) (human); experiment: column breakthrough, ligand […]; after 24 h 0.5 M NaOH
[12] = target: human polyclonal IgG (Gammanorm) (human); experiment: column breakthrough, ligand 7.0 mg/ml; after 24 h 0.5 M NaOH
[13] = target: human polyclonal IgG (Gammanorm) (human); experiment: column breakthrough, agarose beads, ligand […], 6 min residence
[14] = target: human polyclonal IgG (Gammanorm) (human); experiment: column breakthrough, agarose beads, ligand 7.0 mg/ml, 6 min residence
[15] = target: IgG1 monoclonal antibody (probe molecule in the Biacore kinetics); experiment: SPR (Biacore), ligand on CM5 chip, IgG1 mAb as probe
[16] = target: IgG1 monoclonal antibody (probe molecule in the Biacore kinetics); experiment: SPR (Biacore), ligand on CM5 chip, IgG1 mAb as probe; exponent read as 10^-5
[17] = target: human polyclonal IgG (Gammanorm) (human); experiment: SPR; ratio of remaining capacity to reference Zvar1
[18] = target: human polyclonal IgG (Gammanorm) (human); experiment: SPR, ligand on chip; signal left after 96-100 CIP cycles 0.5 M NaOH
[19] = target: human polyclonal IgG (Gammanorm) (human); experiment: SPR; ratio to reference Zvar2
[20] = target: human polyclonal IgG (Gammanorm) (human); experiment: column breakthrough, ligand 7.2 mg/ml; after 24 h 0.5 M NaOH
[21] = target: human polyclonal IgG (Gammanorm) (human); experiment: column breakthrough, agarose beads, ligand […], 6 min residence; remark: listed apart in the source
[22] = target: human polyclonal IgG (Gammanorm) (human); experiment: column breakthrough, agarose beads, ligand 7.2 mg/ml, 6 min residence
[23] = target: human polyclonal IgG (Gammanorm) (human); experiment: column breakthrough, ligand […]; after 24 h 1.0 M NaOH
[24] = target: human polyclonal IgG (Gammanorm) (human); experiment: pH 6-3 citrate gradient elution; hexamer SEQ ID NO 33 on agarose; peak 2
[25] = target: human polyclonal IgG (Gammanorm) (human); experiment: SPR; ratio to reference (the text names Zvar6)
[26] = target: human polyclonal IgG (Gammanorm) (human); experiment: pH 6-3 citrate gradient elution; hexamer SEQ ID NO 33 on agarose; peak 1
[27] = target: human polyclonal IgG (Gammanorm) (human); experiment: column breakthrough, agarose beads, ligand 10.8 mg/ml, 6 min residence
[28] = target: human polyclonal IgG (Gammanorm) (human); experiment: column breakthrough, ligand 10.8 mg/ml; after 24 h 0.5 M NaOH

Substance: Zvar(Q9A,N11E,N28A,N43A)4 (designed binder)
Remaining capacity 100 cycles (%) [7]: 80% | Remaining capacity 200 cycles (%) [7]: 62% | Remaining capacity 300 cycles (%) [7]: 42% | Capacity relative to ref. 100 cycles [8]: 1.19 | Capacity relative to ref. 200 cycles [8]: 1.72 | Capacity relative to ref. 300 cycles [8]: 2.62 | Capacity relative to ref. 100 cycles [9]: 2.04 | Remaining capacity 100 cycles (%) [10]: 55%

Substance: Zvar(Q9A,N11E,N28A,N43A)4 with an additional N-terminal cysteine (designed binder)
Remaining IgG capacity Qb10 after six 4 h cycles [11]: 46.2 mg/mL | Remaining IgG capacity after six 4 h cycles (%) [11]: 93% | Remaining IgG capacity Qb10 after six 4 h cycles [12]: 44.1 mg/mL | Remaining IgG capacity after six 4 h cycles (%) [12]: 90% | Initial IgG capacity Qb10 [13]: 50 mg/mL | Initial IgG capacity Qb10 [14]: 49.1 mg/mL

Substance: Zvar(Q9A,N11E,Q40V,A42K,N43A,L44I)1 (designed binder)
Kd [15]: 1.07 nM | kon [15]: 410000 M⁻¹ s⁻¹ | koff [16]: 0.000437 s⁻¹ | Capacity relative to reference [17]: 1.4 | Capacity after 96-100 cycles [18]: 66%

Substance: Zvar(Q9A,N11E,Q40V,A42K,N43A,L44I)4 with an additional N-terminal cysteine (designed binder)
Remaining IgG capacity Qb10 after six 4 h cycles [20]: 44.2 mg/mL | Remaining IgG capacity after six 4 h cycles (%) [20]: 90% | Capacity retention relative to ref. after six 4 h cycles ([3]; ligand content 7.2 mg/ml): 1.5 | Remaining IgG capacity Qb10 after six 4 h cycles [11]: 53.6 mg/mL | Remaining IgG capacity after six 4 h cycles (%) [11]: 95% | Capacity retention relative to ref. after six 4 h cycles [4]: 1.67 | Initial IgG capacity Qb10 [21]: 60.3 mg/mL | Initial IgG capacity Qb10 [13]: 56.3 mg/mL | Initial IgG capacity Qb10 [22]: 49 mg/mL | Remaining IgG capacity Qb10 after six 4 h cycles [23]: 56 mg/mL | Remaining IgG capacity after six 4 h cycles (%) [23]: 93%

Substance: Zvar(Q9A,N11E,Q40V,A42K,N43A,L44I)6 (designed binder)
Remaining capacity 100 cycles (%) [7]: 87% | Elution pH [24]: 3.81 pH | Capacity relative to ref. 100 cycles [25]: 1.3 | Elution pH [26]: 4.24 pH

Continued, values first:

Initial IgG capacity Qb10 [1]: 62.1 mg/mL | Remaining IgG capacity Qb10 after six 4 h cycles [2]: 48.1 mg/mL | Remaining IgG capacity after six 4 h cycles (%) [2]: 77% | Capacity retention relative to ref. after six 4 h cycles [3]: 1.53 | Capacity retention relative to ref. after six 4 h cycles [4]: 1.44 | Initial IgG capacity Qb10 [5]: 56.3 mg/mL | Remaining IgG capacity Qb10 after six 4 h cycles [6]: 52 mg/mL | Remaining IgG capacity after six 4 h cycles (%) [6]: 92%
Substance: Zvar(N11K,H18K,S33K,D37E,A42R,N43A,L44I,K50R,L51Y)4 with an additional N-terminal cysteine (designed binder)

Remaining capacity 100 cycles (%) [7]: 72% | Capacity relative to ref. 100 cycles [19]: 1.31
Substance: Zvar(Q9A,N11E,Q40V,A42K,N43A,L44I)2 with YEDG inserted in linker between K58 and V1 (designed binder)

Remaining capacity 100 cycles (%) [7]: 90% | Remaining capacity 200 cycles (%) [7]: 74% | Remaining capacity 300 cycles (%) [7]: 57% | Capacity relative to ref. 100 cycles [8]: 1.34 | Capacity relative to ref. 200 cycles [8]: 2.06 | Capacity relative to ref. 300 cycles [8]: 3.56 | Capacity relative to ref. 100 cycles [9]: 2.07 | Remaining capacity 100 cycles (%) [10]: 56%
Substance: Zvar(Q9A,N11E,Q40V,A42K,N43A,L44I)4 (designed binder)

Remaining capacity 100 cycles (%) [7]: 84% | Remaining capacity 200 cycles (%) [7]: 65% | Remaining capacity 300 cycles (%) [7]: 48% | Capacity relative to ref. 100 cycles [8]: 1.25 | Capacity relative to ref. 200 cycles [8]: 1.81 | Capacity relative to ref. 300 cycles [8]: 3 | Capacity relative to ref. 100 cycles [9]: 2 | Remaining capacity 100 cycles (%) [10]: 54%
Substance: Zvar(Q9A,N11E,Q40V,A42K,N43E,L44I)4 (designed binder)

Initial IgG capacity Qb10 [27]: 56.9 mg/mL | Capacity retention relative to ref. after six 4 h cycles [3]: 1.3 | Remaining IgG capacity Qb10 after six 4 h cycles [28]: 52.5 mg/mL | Remaining IgG capacity after six 4 h cycles (%) [28]: 92%
Substance: Zvar(Q9A,N11K,H18K,D37E,A42R)4 with an additional N-terminal cysteine (designed binder)
